From US12077763B2, “RNA-based control of powdery mildew” (Greenlight Biosciences, Inc., priority 2021, dated 2024)

B1: GS3312 (nucleic acid)
sense: CUGCUGGUAGUGACAAGGGCACAGAACACGUCUGGGAAAUAAGCCAGAGCGUGGGCAUGAUAAUUGGUGGAAUUUUAGAAAAUUUGCUCAUGCUUAUGGGAAAAGUUCCCAGCUUAACGAGGAGGCAAGUACGAUAUAGCUGUAUGACAAGAUACUAUGACUGUAGUAAAGCUAAGAGGCUACUUGGAUAUACACCAGAAGUCCACCUGUGGGAAGGCAUAGAGAGGUCAGUUGCUUGGUUCAAAAAUCAGAGUUAAUUAUCGAAGCCCGAAUGAAUACUUCAUAUUACUAAACUUGCCCGAAUUAAAAUUCUGGCUAGCUUAGUUAUCAAAUAAAAAUUGAUAGUUAAGUUGAUCUUUCAUUGAUGAAUAUAUAAGUACUUAACCUUAUCAUUCAAU
antisense: AUUGAAUGAUAAGGUUAAGUACUUAUAUAUUCAUCAAUGAAAGAUCAACUUAACUAUCAAUUUUUAUUUGAUAACUAAGCUAGCCAGAAUUUUAAUUCGGGCAAGUUUAGUAAUAUGAAGUAUUCAUUCGGGCUUCGAUAAUUAACUCUGAUUUUUGAACCAAGCAACUGACCUCUCUAUGCCUUCCCACAGGUGGACUUCUGGUGUAUAUCCAAGUAGCCUCUUAGCUUUACUACAGUCAUAGUAUCUUGUCAUACAGCUAUAUCGUACUUGCCUCCUCGUUAAGCUGGGAACUUUUCCCAUAAGCAUGAGCAAAUUUUCUAAAAUUCCACCAAUUAUCAUGCCCACGCUCUGGCUUAUUUCCCAGACGUGUUCUGUGCCCUUGUCACUACCAGCAG
B2: GS3317 (nucleic acid)
sense: CAGGACUGUCCAGUUAGAUCUAGAGUCAAAAUGCCCAAAUCAUCCAAAAAGUAAGGUGGUAUAAGAAGAAGCUUAACGUUUAUAGACGUAACUGAAUCUCGGAAGAACAGCUCUUUCCUAGCAAGCAAGUAGUUGUGAAAUUACCUGCUCCUAGGUUUAUUUUUUAUUUUCAGGUGGAAUAUUGAUGAUCGCUGGAUCCACAAAAUGUAAAUUAAAAAAAUAAAAACAAAUAUCUGGUGACUGAAGGAUUUCAUGUAGUGACUAAACGUCAGUACAAGUCACAGAGUACUGAUCAAAACUACAGAAUUAUAUCUCGACGUCUUCCCUGAAGAUGAUAAAAGAUUCACCCACAACAUAAAGCUUUCAUUAUAUAU
antisense: AUAUAUAAUGAAAGCUUUAUGUUGUGGGUGAAUCUUUUAUCAUCUUCAGGGAAGACGUCGAGAUAUAAUUCUGUAGUUUUGAUCAGUACUCUGUGACUUGUACUGACGUUUAGUCACUACAUGAAAUCCUUCAGUCACCAGAUAUUUGUUUUUAUUUUUUUAAUUUACAUUUUGUGGAUCCAGCGAUCAUCAAUAUUCCACCUGAAAAUAAAAAAUAAACCUAGGAGCAGGUAAUUUCACAACUACUUGCUUGCUAGGAAAGAGCUGUUCUUCCGAGAUUCAGUUACGUCUAUAAACGUUAAGCUUCUUCUUAUACCACCUUACUUUUUGGAUGAUUUGGGCAUUUUGACUCUAGAUCUAACUGGACAGUCCUG
B3: GS3319 (nucleic acid)
sense: GUGUUGAGACCUAAGAGCCUAUGAGUGAGUCACAUUACAACAGAAAGCCUCAAGUCUAAAGUCAUAACCUAUUAAAAUUCGAAAGCACAAAAACAUCCAUUAGGAACUGACUAAGUACAAGAGCUACUCCAUAAAAAUCAGUCGCAAUACAUGUUUUUGCAAAGCAGAUCAACCUGGUUAAGACGAGAAAUAACUUAGUAUUCAACGUAGCUAAAUCUCCAGGGUGUUAGUGUAGUAUAUUGACGUUUCCGAAAUAAUUAAAACCAGCAUCUUAGUUUGGUGUUAUUUGAUAUAUAUGAUAAGAUUCGUUUAGGAUUUAUUGGAAUUUAUUUGGCUGGUAUCUAAUGUAGAUUUGAUUGAUACCGUAUUAUCAAAUCAUUUUAU
antisense: AUAAAAUGAUUUGAUAAUACGGUAUCAAUCAAAUCUACAUUAGAUACCAGCCAAAUAAAUUCCAAUAAAUCCUAAACGAAUCUUAUCAUAUAUAUCAAAUAACACCAAACUAAGAUGCUGGUUUUAAUUAUUUCGGAAACGUCAAUAUACUACACUAACACCCUGGAGAUUUAGCUACGUUGAAUACUAAGUUAUUUCUCGUCUUAACCAGGUUGAUCUGCUUUGCAAAAACAUGUAUUGCGACUGAUUUUUAUGGAGUAGCUCUUGUACUUAGUCAGUUCCUAAUGGAUGUUUUUGUGCUUUCGAAUUUUAAUAGGUUAUGACUUUAGACUUGAGGCUUUCUGUUGUAAUGUGACUCACUCAUAGGCUCUUAGGUCUCAACAC
B4: GS3314 (nucleic acid)
sense: CGAGGUUCAUGGUAGUUCCCUAUCUAAGGAUGAUCUUCGAGAUUUGAGAAAUAUUGACCUCUCAGACUUUUCCUACCGACAGCCCUAUAUGCAAGAAAGAAGAGACGCCGUUGGCCAAAGAGGAAACAUAAGUAAUAGAGGAAGAGGAAGGGUGAGAGGUAUAGGAAGGGAUCCAAACGUGGACCUUCCCCAACCCUUAAGUAGUCAACCUUUAAGGAGGGACGAACAAGCAUUUCAAAGGCAACUAGCAGUCCAAUCCUCUCAGUCUGUCACGACAAGGAACUCCGUCCAUCAAAAUACAACACCAGCAUCGCAAAUAUCAAAUAAUACUCCAAAAUCACAGUCUCAAGUAACAAGAUCCCCCCAGACUUCUAAUAACCUUGAAAGUGCAAACAUU
antisense: AAUGUUUGCACUUUCAAGGUUAUUAGAAGUCUGGGGGGAUCUUGUUACUUGAGACUGUGAUUUUGGAGUAUUAUUUGAUAUUUGCGAUGCUGGUGUUGUAUUUUGAUGGACGGAGUUCCUUGUCGUGACAGACUGAGAGGAUUGGACUGCUAGUUGCCUUUGAAAUGCUUGUUCGUCCCUCCUUAAAGGUUGACUACUUAAGGGUUGGGGAAGGUCCACGUUUGGAUCCCUUCCUAUACCUCUCACCCUUCCUCUUCCUCUAUUACUUAUGUUUCCUCUUUGGCCAACGGCGUCUCUUCUUUCUUGCAUAUAGGGCUGUCGGUAGGAAAAGUCUGAGAGGUCAAUAUUUCUCAAAUCUCGAAGAUCAUCCUUAGAUAGGGAACUACCAUGAACCUCG
B5: GS3323 (nucleic acid)
sense: AGGCGUGGACUGUAGCCUCAAUAGCAUACACUGAAUCGAAUGAGUUGUCAGGAAAUGACAUUUGCAUAAAGUCACCCUUAACAAAGCUUAAUUGGUUUGAUAAGCCUUCUUUCUGUGCAUAUCUCGUGGCCCGCUCUAUUUGGUAAUCAUUGUUGUUCAAGCCAGUAAUAUGAGCGCCAGUAAACUUGGCGAUUUCUCUUGCCGGACCACCAACACCACAUCCGACAUCAAGUACUUUGUCUGCCUCAUUAAUGCCUAUCUUAGCGGCAAGAUAAUGUUCAUGUCGCGCAAUCGCUUGGUAAAAUGGUUCACCGUAAGCAAAUCUACAGAAGUGAAAAGAUUGUCCCCAGCCGUAUUCGUAAAGAUCGGUGCCGAGAUUAUAGUACUGUCUUGUCAAA
antisense: UUUGACAAGACAGUACUAUAAUCUCGGCACCGAUCUUUACGAAUACGGCUGGGGACAAUCUUUUCACUUCUGUAGAUUUGCUUACGGUGAACCAUUUUACCAAGCGAUUGCGCGACAUGAACAUUAUCUUGCCGCUAAGAUAGGCAUUAAUGAGGCAGACAAAGUACUUGAUGUCGGAUGUGGUGUUGGUGGUCCGGCAAGAGAAAUCGCCAAGUUUACUGGCGCUCAUAUUACUGGCUUGAACAACAAUGAUUACCAAAUAGAGCGGGCCACGAGAUAUGCACAGAAAGAAGGCUUAUCAAACCAAUUAAGCUUUGUUAAGGGUGACUUUAUGCAAAUGUCAUUUCCUGACAACUCAUUCGAUUCAGUGUAUGCUAUUGAGGCUACAGUCCACGCCU
B6: ES53: dsRNA trigger SEQ ID NO 114; gene target Hypotethicai effector (nucleic acid)
DNA: ACGATTATCGCCAATTGGGGTGATACTGTTGTAGTACATGTTACTAATTCATTAATGAATAATGGAACGAGCATTCATTTTCATGGACTCCGGCAATTCGAAACAAACCAAATGGATGGTCCAACATCAATAACACAGTGTCCCATAGCTCCCGGTGATAGTTTTACATATAGATGGGTTGCCTCTCAGTACGGAAGTTCATGGTACCATGCTCATTTCGCCGTAC
B7: GS3313 (nucleic acid)
sense: AUCGUGAAUGGAGCUGUAACUGAAACAACAGCUUUACUAAACGAAAAAUGGGACAAAAUAUUUUACACUGGCAAUACCCAAGUAGGUGUAAUAAUUGCCAAAAAAGCUGCAGAAACUCUUACACCAGUUUGCUUAGAGCUCGGGGGAAUCAAUCCGGCAAUCAUUACGAAAAAUGCAGACCCAUACCUUGCUGCUCGUCGGCUAUUAUGGGGUAAACUAAUGAAUGCUGGACAAGUUUGCAUCAGUCAAAAUUAUAUUCUUGUCGAACAAGAAGUUUUACCAAUUUUCGUAGAGCAUUUGAAAAACACUCUAAAUGAAUUCUAUCCAAAUGGUAUAAGAAAUAGUCCAGAUUUUGGAAGGAUAGUCAAUCAGCGUCAUUUUUCUAGAAUUAAAAAAAU
antisense: AUUUUUUUAAUUCUAGAAAAAUGACGCUGAUUGACUAUCCUUCCAAAAUCUGGACUAUUUCUUAUACCAUUUGGAUAGAAUUCAUUUAGAGUGUUUUUCAAAUGCUCUACGAAAAUUGGUAAAACUUCUUGUUCGACAAGAAUAUAAUUUUGACUGAUGCAAACUUGUCCAGCAUUCAUUAGUUUACCCCAUAAUAGCCGACGAGCAGCAAGGUAUGGGUCUGCAUUUUUCGUAAUGAUUGCCGGAUUGAUUCCCCCGAGCUCUAAGCAAACUGGUGUAAGAGUUUCUGCAGCUUUUUUGGCAAUUAUUACACCUACUUGGGUAUUGCCAGUGUAAAAUAUUUUGUCCCAUUUUUCGUUUAGUAAAGCUGUUGUUUCAGUUACAGCUCCAUUCACGAU
B8: GS3320 (nucleic acid)
sense: UUAUCAUGCUGCCAUGGUUCAUAAGAAAAAAAUUUACUAAGAUUAGUAGGGAUGCAUAGACCUAAUGACACGCCCAUAAAAGUUGUAUGGCUAUCCCAACCAUGUUCAGAAAGUAUCUCGAGACCAUGAAUGCUUCUAGAAAUAAGGCCAAGUACGAAAAAUGCGGUUCCUCUCAUGCUCAUUAUUUCAUGCGAUUCUGCAAUUUUAAUUAUGUUCUGCACGACAUCUGAUUUUUCAAGAAAAGGAGCACCCAAUUCCAUAGAUCCAACGUUACCUACAGCCCAUAGGCAUCCUUUAACCUUAAGAAUAAUCUCUAAAUCAUCAUAAUGCAUUCCAUAUUCACGAAUGGUUGAGGCAAAUUCAUCAAAAUGACCUUUAUCAUGCAAGAGCUU
antisense: AAGCUCUUGCAUGAUAAAGGUCAUUUUGAUGAAUUUGCCUCAACCAUUCGUGAAUAUGGAAUGCAUUAUGAUGAUUUAGAGAUUAUUCUUAAGGUUAAAGGAUGCCUAUGGGCUGUAGGUAACGUUGGAUCUAUGGAAUUGGGUGCUCCUUUUCUUGAAAAAUCAGAUGUCGUGCAGAACAUAAUUAAAAUUGCAGAAUCGCAUGAAAUAAUGAGCAUGAGAGGAACCGCAUUUUUCGUACUUGGCCUUAUUUCUAGAAGCAUUCAUGGUCUCGAGAUACUUUCUGAACAUGGUUGGGAUAGCCAUACAACUUUUAUGGGCGUGUCAUUAGGUCUAUGCAUCCCUACUAAUCUUAGUAAAUUUUUUUCUUAUGAACCAUGGCAGCAUGAUAA

Test system: E. necator
Assay: Leaf disc assay, dry inoculum (settling tower), decrease in disease severity / hyphal growth (Example 2)
Conditions: decrease in disease severity (hyphal growth) relative to untreated control; time point 1 (untreated control hyphal growth ≥50%); value ± SE

Molecule	% decrease =/− SE TP1
B1	13 ± 4%
B2	21 ± 9%
B3	23 ± 8%
B4	17 ± 8%
B5	26 ± 7%
B6	4 ± 1%
B7	9 ± 9%
B8	20 ± 8%

Same assay, conditions: decrease in disease severity (hyphal growth) relative to untreated control; time point 2; value ± SE

Molecule	% decrease =/− SE TP2
B1	19 ± 6%
B2	17 ± 9%
B3	25 ± 7%
B4	12 ± 8%
B5	19 ± 7%
B7	13 ± 9%
B8	5 ± 8%
